The values below come from the DeepSol protein solubility set.

This data set is described as follows: soluble on expression in E. coli; label from the status in PepcDB or PDB records.
For “MAKQKDNYLDYVPKHNSLFECRENKKGHVEVKVHNKGIFNRIAQLIARKPRYSYIELDDFGTFVWHSIDGVRSIYDIGQLVKEHFGDKAEPLYERLCYFIKLLHKNQFIVYMNKINKQINK”, the “soluble on expression in E. coli” value was “not soluble”.

Consider “MAKRKGKGTRSESNRNLEELRRKAVEIVKRLEKVYLNPRLELEYENAFQLLVMAILAAQESDKVVNKVSKEFFKKYKTPQDIARANLEELEEDLKHINFYRRKAKLIKECCEKLIELYKGEVPKSVGELVKLPGVGRKTANMVIGGAYNLPAIIVDRHVHRVVERISLSKQKNPDKMEMELSEIVPQELWTKFSLLLLNHGKTICKARNPECEKCPILDLCEYGQKNLKGRK”, for which the “soluble on expression in E. coli” value is given as “soluble”.

Take “MAKSSERFESLRRDIDALARRLDVPSVLIMRSLPRHMRVEASAGRLEDTYPIGAEGRKSVHEDGAKPLYCERVVDRDAPLHVRDSRQETEWAGNEDEVEFGLSNYLGYPVHAPDGTPYGTVCVLDSRPRDYSAEERALLEELRRKVEALLAETVS”: the “soluble on expression in E. coli” value is listed as “not soluble”.

Regarding “MAKVVSKANQSQGMLMFKLTLQQNFAIGTLKVREIVPYMPTTKIPYSHHHVIGTVTIRDLTVPVIDMSAAVGFRPITQEEYKNCYLIVTDCLRTVVAFMVRSIEKIIECDWKAIETPPASAGKNIFVTGITRYGDQTVQMLDVELLLSKIYPQYENANIPMLTDVERERLKA”, the “soluble on expression in E. coli” value is reported as “not soluble”.

On to “MAKYNEKKEKKRIAKERIDILFSLAERVFPYSPELAKRYVELALLVQQKAKVKIPRKWKRRYCKKCHAFLVPGINARVRLRQKRMPHIVVKCLECGHIMRYPYIKEIKKRRKEKMEYGGLVPR”, for which the “soluble on expression in E. coli” value is given as “soluble”.

Consider “MALDLTGYLDRINYRGATDPTLDVLRDLVSAHTGAIAFENLDPLMGVPVDDLSAEALADKLVDRRRGGYCYEHNGLIGYVLAELGYRVRRLAGRVVWLAPPDAPTPAQTHTVLAVTFPGCQGPYLVDVGFGGMTPTAPLRLETGTVQQTALEPYRLDDRGDGLVLQAMVRDEWQALYEFSTLTRPQVDLRVGSWFVSTHPTSHFVTGLMAATVADDARWNLMGRNLAIHRRGGTEKILLEDAAAVVDTLGDRFGINVADVGERGRLEARIDKVCFGAENR”, for which the “soluble on expression in E. coli” value is recorded as “soluble”.

For the sequence “MALKKAMLLIKNGKILTMTGVNYDSGSVLIDNGKIIKVGENIDVDESCEIIDADGFWVMPGIIEAHCHVGIQEEKRGFEGNDCNEMTNPVTPYLRALDGINPMDSAFYTALTAGITGIMVGPGSANVVGGQWMFLKTYGRAIDKMVVLQPSAMKIAFGENPKANYDKKNMMPSTRIAIAAMLREELFEAQQYYEKRKNAEKSGDSFNKEFRKECWVPVFDKKIPLKAHVHRADDILTAIRIAKEFNLNLTLDHCTEGHLVAKEIKESGFPAIVGPTLTSRNKIETQYADFKTAGILHNEGVKVAITTNHPVTRIQDLLICAGLAAKEGLGIEEGLKAITINPAEICNVANRVGSIEVNKDADIAIFDGNPMETFTKTMYTIINGEIVYSLKDKNYEGHHHHHH”, the “soluble on expression in E. coli” value is “soluble”.

As to “MALKLKLKMPSSSASNSPQPPPPESHSPEQPKLPKLKIKAPSKTPVSSTPDSSMALKRPQEEQSTGENPKKLKLSLSKTKENGRPKGLPRVRIKPTRIPGEGYDSEAPDLEDDPLIEQGIIIRFLNDSNLDFVHNAVDSGDLTGLNVKWVTKEKAIVNVNSILYSARLIDLPTVTEIFKTVDRKNVFKTLDICQILLVLHVVDPAKLNIDTDFEVPEEFLFNHPFYKYVKNNEIKKKRMVLKDGLLQPFQDVYRRFRPTKVDHRVILDIESKVDELIKLDNEADESHFELLDSKTAQQSRFGTSATPSAVNSPVAMRMEGPEVEPGRFSNVQDHENEEDDEEEDEEDYDDDDLQDDDMELHLEQELEKVLDGELSESEVTIPTSMAGILTNDVGNGISIMTNGEQSEDIDGDEQDDEEEEEEEEEDGDDEEEEEEEEEEENEEGDSESGKQHVKLLEEEIFELEKAVAHHQKNLSTASSKMLRMKFQNTYTSLKASLDSKKRDLAKLLDEQEQQQEQKQPKTTVDEKSQEAEHSVEAEAEIEAQVEADAEDGDEDEDIDQGDDMNQENNNNNGDSDIDEDNADDLDDLF”, the “soluble on expression in E. coli” value was “not soluble”.

For “MALLHGGQLQQVAKQYNIPPSDWIDVSTGIAPISYPIPIIPLSVWQQLPQQNPDLIAAAQQYYQCSQLMITNGSQAIIKALPALYRQKNAESQDVYLPERGYKEHAHAWKNAGYNLHFYQEFLPEMSEILPNSVLVIINPNNPTGQFFNGQVIAQYQERLKLINGLLVLDEAFIDVVPGNQSYYNQLENSHSLVLRSFGKFFGLAGIRIGFLVANGYWCGAFKELLGPWQINGPAQLIAQHALQDTSWQTRQKDTLTRLRIAQEHMLRQAFPQIILREINGCNLFLTLSFHQQDTAKKLYHLLCQQGVYCRLADEQDTLRFGITTEELLERLTLACRQAYQQLT”, the “soluble on expression in E. coli” value is “not soluble”.

Turning to “MALPKPSDGTLPAEVQGRGQRRRLVWTPSQSKALQACFERNPYPGITTRERLAQAIGIPEPRVQILFQNERSCQLRQHWH”, the “soluble on expression in E. coli” value is listed as “soluble”.

On to “MALRWGIVSVGLISSDFTAVLQTLPRSEHQVVAVAARDLSRAKEFAQKHDIPKAYGSYEELAKDPNVEVAYVGTQHPQHKAAVMLCLAAGKAVLCEKPMGVNAAEVREMVTEARSRGLFLMEAIWTRFFPASEALRSVLAQGTLGDLRVARAEFGKNLTHVPRAVDWAQAGGALLDLGIYCVQFISMVFGGQKPEKISVMGRRHETGVDDTVTVLLQYPGEVHGSFTCSITAQLSNTASVSGTKGMAQLLNPCWCPTELVVKGEHKEFLLPPVPKNCNFDNGAGMSYEAKHVRECLRKGLKESPVIPLVESELLADILEEVRRAIGVTFPQDKH”, for which the “soluble on expression in E. coli” value is recorded as “soluble”.

With “MALSHSVKERTISENSLIILLQGLQGQITTVDLRDESVARGRIDNVDAFMNIRLANVTYTDRWGHQVELDDLFVTGRNVRYVHIPDGVDITATIEQQLQIIHRVRNFGGKGQGRREFPSKRP”, the “soluble on expression in E. coli” value is reported as “soluble”.

On to “MALVLTFLGKGGVGRTTVAIAAAKKLAQAGQRVLVLGQDPSLAWQWGITLSETAQGVEANVDGLLLSSTHLLERGWEKLKEVEAQYLRSPALKNIYGEELGVLPGMDEVLVLNALREYELSGRYDVLIYDGPGNLSTLRMLGIPEIASWYWRRFQKVLADSEVVQTLSPFVQPVASAVLSVNWSPDQMLNHPDGPQNLLQQGKAAIADPNRFAAYLVTSTDSLAQKAAQSYWGGAQQVGVTVKGVIQTPLGNGSLDANLFDPLLIAALPSYNQGNWQPLMDALPNPQAMGSAPRPLEIDVNARQVKVFLPGFDKRQVKLTQSGPELTIEAGDQRRNIDLPGNLRGKGVTGAKFQGGYLIVSFLEHHHHHH”, for which the “soluble on expression in E. coli” value is on record as “not soluble”.

In the case of “MAMKERYLIIDGYNMIGQSPTLSAIAKENLEEARMQLIDAIANYNAVISDEIICVFDAYDQSGVEREYMYHGVKTIFTKEKETADSFIERYVYELYDKHTKHITVVTSDMSEQHAIFGSGAYRISSREMWRDLKENEIDVSKSLDDISENKPRTRIPLSSEILAEFEKIRRGHHKKLEHHHHHH”, the “soluble on expression in E. coli” value is listed as “not soluble”.

On to “MAMNNILGLFAHSPLKPLQKHSEKVTECSDLLIPFFQTTFSKNWEQAEEKRLEISQCEREADSLKREIRLKLPRGLFLPIDRTDLLELVTQQDKLANYAKDIAGRMIGRQFGIPEEMQEEFLHYVKRSLDAIHQAHRVIEEMDKLLETGFKGRELKLVNDMIQELDSIEDDTDQMQIKLRKMLYTIESRYNPIDVMFLYKIIEWVGVLADQAQRVGSRIELMLARS”, for which the “soluble on expression in E. coli” value is listed as “not soluble”.

As to “MAMQIKGVIFDFDGTLLDSVELRITAWKKAFQNFGVNVPEDLIRPMIGYPGIDLAKKFVKNPLDVEMLQEDYFLKNIESAKFFQDVIPTLAELRKRGIKTAVVTSTRRIVMQKFSLQVDHVVTIDDVSKGKPDPEPYLKALKMMGIPAEECIVVGDIENDLIPAKKLRCISVLVKHGRDISSNYADYEIENIADILNVIDHLAEKNNR”, the “soluble on expression in E. coli” value is “not soluble”.

“MAMSFEWPWQYRFPPFFTLQPNVDTRQKQLAAWCSLVLSFCRLHKQSSMTVMEAQESPLFNNVKLQRKLPVESIQIVLEELRKKGNLEWLDKSKSSFLIMWRRPEEWGKLIYQWVSRSGQNNSVFTLYELTNGEDTEDEEFHGLDEATLLRALQALQQEHKAEIITVSDGRGVKFF”: the “soluble on expression in E. coli” value is on record as “soluble”.

Consider “MAMTGVLRPGHAQVRVLNLEEGIHFYRNVLGLVETGRDDQGRVYFKCWDERDHSCYIIREADTAGIDFFGFKVLDKATLEKLDADLQAYGLTTTRIPAGEMLETGERVRFELPSGHLIELYAEKTCVGNGISEVNPAPWNAQREHGIAPIQLDHCLLYGPNIAEVQKIFTEVLGFYLVERVLSPDGDSDMGIWLSCSHKVHDIAFVEYPEKGKLHHCSFLLESWEQVLRAGDIMSMNEVNVDIGPTRHGVTRGCTIYAWDPSGNRFETFMGGYHPYPDYEPLSWTYDNFAQGLDYPQRKLHETFMTVVT”, for which the “soluble on expression in E. coli” value is “soluble”.

On to “MANDEQQQLLNKIVRDDSQDKQVLLMINGAAGTGKTFLIKLIENSMNRSVRKRVVLMTGSTGKAAKAIGGRTLHCTIGLPNEKPEDLERLKYQAFICVTTRLIIIDEITLLASWHLDATDMVLKRTPKRTDALFGGLSIILVGDLRQLNLGGWRGKKQIDTVFIKVGGYPDPISCQNVCD”, for which the “soluble on expression in E. coli” value is “not soluble”.

Consider “MANEVIKCKAAVAWEAGKPLSIEEIEVAPPKAHEVRIKIIATAVCHTDAYTLSGADPEGCFPVILGHEGAGIVESVGEGVTKLKAGDTVIPLYIPQCGECKFCLNPKTNLCQKIRVTQGKGLMPDGTSRFTCKGKTILHYMGTSTFSEYTVVADISVAKIDPLAPLDKVCLLGCGISTGYGAAVNTAKLEPGSVCAVFGLGGVGLAVIMGCKVAGASRIIGVDINKDKFARAKEFGATECINPQDFSKPIQEVLIEMTDGGVDYSFECIGNVKVMRAALEACHKGWGVSVVVGVAASGEEIATRPFQLVTGRTWKGTAFGGWKSVESVPKLVSEYMSKKIKVDEFVTHNLSFDEINKAFELMHSGKSIRTVVKI”, for which the “soluble on expression in E. coli” value is listed as “soluble”.

Consider “MANFESSVKVIPYSQERVYAKLSDLSNLESVKGRLPEDKIQDLSFDSDTLSFSVSPIGQLTLQIVEREPCKCIKLATTNSPLPFNMWIQLVSTAEEECKLKVTISMDINPFMKAMVQKPLQDGLEKMVEMLSMINYLEHHHHHH”, for which the “soluble on expression in E. coli” value is recorded as “soluble”.

On to “MANFIIELSADESFNIVINDLKPIETYRVEMFLSDYYCINAPMRLAHDVLWKSTATFVSDTNGIINISQTPSCSGSYEGISTMGLFFNAKPLTNKRKKLPNSISKIPLLDHFFVGIKIMQGNTVIAERTFTRHYMSSQISHQDIYGKHFQGRLFYDKKAIKTPSIDYCER”, for which the “soluble on expression in E. coli” value was “not soluble”.

In the case of “MANHELDQLRKQVDEINLQLLHLLNKRGEIVQKIGEQKQVQGTKRFDPVREREVLDMIAENNEGPFETSTVQHIFKTIFKASLELQEDDNRKALLVSRKKKQENTIVDVKGELIGNGTQTFIMGPCAVESLEQVRQVGQAMKDQGLKLMRGGAFKPRTSPYDFQGLGVEGLQILRQVADEFDLAIISEILNPNDVEMALDYVDVIQVGARNMQNFDLLRAVGKVNKPVLLKRGLAATIDEFINAAEYIIAQGNDQIILCERGIRTYERATRNTLDISAVPILKKETHLPVVVDVTHSTGRRDLLLPTAKAALAIGADAVMAEVHPDPAVALSDSAQQMDIPEFHRFMEELKGFKNKLS”, the “soluble on expression in E. coli” value is recorded as “not soluble”.

“MANQIYLFSLICLSVLLCQSYTVSSFQKSLDLAKPCKRFVLHLHDIAYDGDNAANATSAAIVNPLGLGDFSFGKFVIMDDPVTMDQNYLSKPVARVQGFFCYHGKATYDAWIAWTVVFNSTQHKGAFTIMGENPFMEPTRDLPIVGGTGDFIMTRGIATLTTDHIDGSKYFRVKLDIKLYECYH”: the “soluble on expression in E. coli” value is “soluble”.
